Laboratory results from patent publication US20210130491A1 (ONCOTAG DIAGNOSTICS, published 2021).
Values belong to the binder of their own block, whether it stands above or below them.

Key:
[1] = target: T1, AIMP3 (aminoacyl tRNA synthetase complex-interacting multifunctional protein 3) (Homo sapiens (Human), UniProt O43324 1-174, limits assumed); assay: SPR, CM5 chip coated with AIMP3, antibody flowed at 0.20 to 200 nM
T1 construct: How the AIMP3-alone protein for SPR and screening was made is not described; also called p18
T1 sequence: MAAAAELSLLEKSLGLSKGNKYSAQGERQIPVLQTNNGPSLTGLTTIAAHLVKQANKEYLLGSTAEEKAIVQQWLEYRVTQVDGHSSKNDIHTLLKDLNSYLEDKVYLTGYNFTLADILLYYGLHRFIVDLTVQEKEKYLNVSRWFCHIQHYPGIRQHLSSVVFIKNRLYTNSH
Procedure: Surface plasmon resonance (SPR) experiments were carried out using 1E8 and 8A12 antibodies and MRS+AIMP3 protein obtained in Example 1.
CM5 chips were coated with MRS+AIMP3 or AIMP3 proteins and 1E8 or 8A12 antibodies were flowed at various concentrations to measure the degree of binding reaction with the proteins. Samples or buffers were injected for 8 minutes at a flow rate of 30 μl/min and washed for 20 minutes.

34S-AIMP2 = target: T2, 34S-AIMP2 (UniProt Q13155 1-320); assay: ELISA, protein coated at 1 ug/ml
T2 construct: not shown: '34S' tag or fusion partner
T2 sequence (looked up): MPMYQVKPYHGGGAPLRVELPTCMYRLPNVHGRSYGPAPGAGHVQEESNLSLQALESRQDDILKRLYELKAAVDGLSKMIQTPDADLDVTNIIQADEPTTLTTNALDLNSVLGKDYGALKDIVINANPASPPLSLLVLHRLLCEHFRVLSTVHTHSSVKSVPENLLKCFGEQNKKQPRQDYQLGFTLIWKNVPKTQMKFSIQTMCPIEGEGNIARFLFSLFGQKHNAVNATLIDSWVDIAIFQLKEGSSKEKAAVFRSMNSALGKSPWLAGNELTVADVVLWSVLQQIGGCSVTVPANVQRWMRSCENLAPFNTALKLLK
Procedure: (§1) Each well of 96 well plates (Corning 3690 flat bottom, 96-well half-area plates) was coated with different kinds of ARS proteins (His-MRS, MRS full, DX2 tag free, 34S-DX2, 34S-AIMP2, His-CRS, His-AIMP1, His-GRS, His-WRS, His-KRS) at the concentration of 1 μg/ml. 1E8 and 8A12 antibodies at a concentration of 500 ng/ml were added onto the 96 well plates coated with ARS proteins and allowed to react for 1 hour. Thereafter, HRP-conjugated anti-mouse IgG secondary antibody was added and reacted for 1 hour. ELISA was performed and absorbance was measured at 450 nm. TMB (3,3′,5,5′-tetramethylbenzidine) was used as substrate.

His-GRS = target: T3, His-GRS (UniProt P41250 55-739); assay: ELISA, protein coated at 1 ug/ml
T3 construct: not shown: His tag
T3 sequence (looked up): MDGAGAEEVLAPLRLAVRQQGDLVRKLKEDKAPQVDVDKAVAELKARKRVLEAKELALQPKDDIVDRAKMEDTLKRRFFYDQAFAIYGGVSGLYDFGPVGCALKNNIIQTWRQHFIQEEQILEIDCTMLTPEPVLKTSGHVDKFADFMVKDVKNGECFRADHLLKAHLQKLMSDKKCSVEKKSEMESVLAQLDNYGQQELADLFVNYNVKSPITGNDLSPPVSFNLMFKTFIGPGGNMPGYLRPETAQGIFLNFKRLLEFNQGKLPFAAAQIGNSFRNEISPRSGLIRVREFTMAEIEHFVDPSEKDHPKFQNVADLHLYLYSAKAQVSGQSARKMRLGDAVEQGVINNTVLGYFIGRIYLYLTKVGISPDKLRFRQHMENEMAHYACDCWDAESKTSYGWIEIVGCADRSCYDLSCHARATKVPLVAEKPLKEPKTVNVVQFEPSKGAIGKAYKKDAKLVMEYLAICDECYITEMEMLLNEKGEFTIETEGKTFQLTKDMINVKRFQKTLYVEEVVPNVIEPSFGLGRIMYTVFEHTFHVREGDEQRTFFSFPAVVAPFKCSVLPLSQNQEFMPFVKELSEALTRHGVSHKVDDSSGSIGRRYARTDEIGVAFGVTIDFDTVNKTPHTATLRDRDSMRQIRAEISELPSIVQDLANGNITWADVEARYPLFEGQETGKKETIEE
Procedure: as §1

His-KRS = target: T4, His-KRS (UniProt Q15046 1-597); assay: ELISA, protein coated at 1 ug/ml
T4 construct: not shown: His tag
T4 sequence (Q15046 whole entry): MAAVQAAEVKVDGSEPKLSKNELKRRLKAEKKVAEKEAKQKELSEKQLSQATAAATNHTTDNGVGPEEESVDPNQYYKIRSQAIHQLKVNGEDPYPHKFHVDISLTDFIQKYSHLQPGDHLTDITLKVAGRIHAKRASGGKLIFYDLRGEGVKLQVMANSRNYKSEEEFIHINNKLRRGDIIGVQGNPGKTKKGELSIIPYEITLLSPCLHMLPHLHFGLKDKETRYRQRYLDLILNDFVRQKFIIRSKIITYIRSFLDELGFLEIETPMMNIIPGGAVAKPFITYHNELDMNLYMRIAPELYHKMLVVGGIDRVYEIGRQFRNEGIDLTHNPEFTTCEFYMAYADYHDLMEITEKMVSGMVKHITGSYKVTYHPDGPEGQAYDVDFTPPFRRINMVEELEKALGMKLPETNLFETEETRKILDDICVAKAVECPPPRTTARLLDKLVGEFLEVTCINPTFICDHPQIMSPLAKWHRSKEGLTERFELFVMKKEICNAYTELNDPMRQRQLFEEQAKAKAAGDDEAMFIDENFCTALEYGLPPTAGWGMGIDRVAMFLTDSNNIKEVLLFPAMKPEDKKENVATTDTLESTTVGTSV
Procedure: as §1

His-CRS = target: T5, His-CRS (UniProt P49589 1-748); assay: ELISA, protein coated at 1 ug/ml
T5 construct: not shown: His tag
T5 sequence (looked up): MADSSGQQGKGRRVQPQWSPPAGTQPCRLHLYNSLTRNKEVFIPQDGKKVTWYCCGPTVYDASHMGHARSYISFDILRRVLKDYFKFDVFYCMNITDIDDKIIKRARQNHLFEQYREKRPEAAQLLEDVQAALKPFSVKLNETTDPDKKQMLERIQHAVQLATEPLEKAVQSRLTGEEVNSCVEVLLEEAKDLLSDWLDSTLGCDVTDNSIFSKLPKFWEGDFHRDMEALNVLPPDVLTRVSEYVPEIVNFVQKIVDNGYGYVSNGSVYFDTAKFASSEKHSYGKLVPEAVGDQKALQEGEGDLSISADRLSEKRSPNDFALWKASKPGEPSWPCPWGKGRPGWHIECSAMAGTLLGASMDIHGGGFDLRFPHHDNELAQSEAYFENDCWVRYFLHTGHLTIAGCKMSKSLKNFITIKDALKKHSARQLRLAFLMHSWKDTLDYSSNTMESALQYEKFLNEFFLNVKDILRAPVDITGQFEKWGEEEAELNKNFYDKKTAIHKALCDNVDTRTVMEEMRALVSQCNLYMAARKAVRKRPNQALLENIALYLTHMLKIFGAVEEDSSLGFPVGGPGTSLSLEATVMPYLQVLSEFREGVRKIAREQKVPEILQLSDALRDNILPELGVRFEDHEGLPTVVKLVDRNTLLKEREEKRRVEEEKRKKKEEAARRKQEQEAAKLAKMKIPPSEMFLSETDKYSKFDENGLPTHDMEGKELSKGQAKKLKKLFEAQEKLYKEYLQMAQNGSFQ
Procedure: as §1

His-AIMP1 = target: T6, His-AIMP1 (UniProt Q12904 1-312, limits assumed); assay: ELISA, protein coated at 1 ug/ml
T6 construct: not shown: His tag
T6 sequence (looked up): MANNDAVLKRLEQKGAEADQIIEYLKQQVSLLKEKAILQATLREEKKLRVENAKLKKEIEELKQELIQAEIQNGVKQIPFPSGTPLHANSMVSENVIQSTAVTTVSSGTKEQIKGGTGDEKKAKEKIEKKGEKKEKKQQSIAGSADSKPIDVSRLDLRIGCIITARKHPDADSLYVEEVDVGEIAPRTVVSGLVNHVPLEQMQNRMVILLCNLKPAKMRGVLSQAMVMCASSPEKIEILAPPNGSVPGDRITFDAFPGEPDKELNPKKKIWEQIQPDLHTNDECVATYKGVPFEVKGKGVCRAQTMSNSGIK
Procedure: as §1

binding result [1]: no binding (tested: 200 nM)
binding result (34S-AIMP2): no binding (tested: 500 ng/ml)
binding result (His-GRS): no binding (tested: 500 ng/ml)
binding result (His-KRS): no binding (tested: 500 ng/ml)
binding result (His-CRS): no binding (tested: 500 ng/ml)
binding result (His-AIMP1): no binding (tested: 500 ng/ml)
B1: 1E8 antibody (1E8 IgG) (antibody, V domains shown)
VH: DVKLQESGPGLVNPSQSLSLTCTVTGYSITSDYAWNWIRQFPGNKLEWMGYISYSGRTSYKSSLKSRISITRDTSKNQFFLELNSVTTEDTATYYCARDYGNFVGYFDVWGAGTTVTVSS
VL: DIVMTQSPSSLAVSVGEKVTMSCKSSQSLLYSSNQKNYLAWYQQKPGQSPKLLIYWASTRESGVPDRFTGSGSGTEFTLTISSVKAEDLAVYYCQQYYSYPTFGGGTKLEIKA
notes: Mouse monoclonal from hybridoma clone 1E8; also called IE8; anti-MRS antibody (1E8)

binding result [1]: no binding (tested: 200 nM)
binding result (34S-AIMP2): no binding (tested: 500 ng/ml)
binding result (His-GRS): no binding (tested: 500 ng/ml)
binding result (His-KRS): no binding (tested: 500 ng/ml)
binding result (His-CRS): no binding (tested: 500 ng/ml)
binding result (His-AIMP1): no binding (tested: 500 ng/ml)
B2: 8A12 antibody (8A12 IgG) (antibody, V domains shown)
VH: DVKLQESGPGLVKPSQSLSLTCTVTGYSITSEYAWTWIRQFPGNKLEWMGYINYNGNTNLNPSLKSRISIIRDTSKNQFFLQLNSVTTEDTATYYCARSLWPRGWFAYWGQGTLVTVSA
VL: DIQMTQSPSSMYASLGERVTITCKASQDINSYLSWFQQKPGKSPKTLMYRANRLVDGVPSRFSGSGSGQDYSLTISSLEYEDMGIYYCLQYDEFPRTFGGGTKLEIKA
notes: Mouse monoclonal from hybridoma clone 8A12; also called 8Al2; anti-MRS antibody (8A12)
